{
  "source": "patent US20190184015A1",
  "about": "“IRRADIATION TREATMENT OF NEUROLOGICAL SENSATIONS BY PHOTOABLATION” (European Molecular Biology Laboratory, priority 2016, published 2019)",
  "key": {"[1]": {"biological_target": "native TrkB receptors in DRG neurons (mouse) (mouse) (UniProt P15209)", "sequence (P15209 32-821)": "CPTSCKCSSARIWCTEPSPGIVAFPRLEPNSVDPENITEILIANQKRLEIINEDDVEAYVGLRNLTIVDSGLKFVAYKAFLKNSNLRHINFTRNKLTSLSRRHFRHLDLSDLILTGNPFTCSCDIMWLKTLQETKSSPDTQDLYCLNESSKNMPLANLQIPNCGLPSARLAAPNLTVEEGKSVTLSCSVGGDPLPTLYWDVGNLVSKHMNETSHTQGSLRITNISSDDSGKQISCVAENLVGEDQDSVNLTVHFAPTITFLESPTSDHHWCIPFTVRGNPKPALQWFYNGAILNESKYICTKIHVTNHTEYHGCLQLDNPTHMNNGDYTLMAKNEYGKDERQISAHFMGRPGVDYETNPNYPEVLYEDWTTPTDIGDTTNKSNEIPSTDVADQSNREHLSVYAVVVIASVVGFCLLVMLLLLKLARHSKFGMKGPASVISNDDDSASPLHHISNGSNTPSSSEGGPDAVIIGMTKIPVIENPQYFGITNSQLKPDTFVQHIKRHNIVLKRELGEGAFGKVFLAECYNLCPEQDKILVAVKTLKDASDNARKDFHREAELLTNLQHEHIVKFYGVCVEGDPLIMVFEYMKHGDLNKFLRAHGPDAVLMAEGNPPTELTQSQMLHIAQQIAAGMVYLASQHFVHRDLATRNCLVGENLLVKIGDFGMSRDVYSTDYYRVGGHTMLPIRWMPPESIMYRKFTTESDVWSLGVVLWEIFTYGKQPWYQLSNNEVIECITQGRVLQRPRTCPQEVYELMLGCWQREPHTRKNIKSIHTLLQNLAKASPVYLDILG", "test": "Qdot 655 conjugated ligand on dissociated DRG of TrkBCreERT2::Rosa26RFP mice, counting of labelled cells"}, "[2]": {"biological_target": "T1, IL31 Receptor A (IL31RA) (Mus musculus, UniProt Q8K5B1)", "T1 construct": "from tissue; host or cells: mouse back skin (nape of the neck), in vivo", "T1 sequence (Q8K5B1 19-716)": "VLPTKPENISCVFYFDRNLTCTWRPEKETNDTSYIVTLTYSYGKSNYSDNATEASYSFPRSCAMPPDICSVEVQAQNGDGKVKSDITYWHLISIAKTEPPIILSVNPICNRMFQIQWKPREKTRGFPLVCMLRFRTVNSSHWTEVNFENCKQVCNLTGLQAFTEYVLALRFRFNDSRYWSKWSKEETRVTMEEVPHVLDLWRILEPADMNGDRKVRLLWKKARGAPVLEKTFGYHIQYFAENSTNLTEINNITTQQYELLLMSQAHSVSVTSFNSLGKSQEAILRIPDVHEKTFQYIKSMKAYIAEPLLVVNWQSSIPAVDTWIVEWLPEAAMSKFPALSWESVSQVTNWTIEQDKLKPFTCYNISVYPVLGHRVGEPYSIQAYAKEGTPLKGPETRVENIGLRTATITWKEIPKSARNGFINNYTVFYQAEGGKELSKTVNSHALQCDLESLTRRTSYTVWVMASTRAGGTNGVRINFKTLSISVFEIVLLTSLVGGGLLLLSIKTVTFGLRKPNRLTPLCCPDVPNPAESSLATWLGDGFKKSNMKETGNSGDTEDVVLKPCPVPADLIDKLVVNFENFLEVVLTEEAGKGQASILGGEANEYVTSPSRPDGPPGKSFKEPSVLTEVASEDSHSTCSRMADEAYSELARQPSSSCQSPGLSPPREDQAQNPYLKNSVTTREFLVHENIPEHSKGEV", "T1 sequence (O70458 24-971 partner)": "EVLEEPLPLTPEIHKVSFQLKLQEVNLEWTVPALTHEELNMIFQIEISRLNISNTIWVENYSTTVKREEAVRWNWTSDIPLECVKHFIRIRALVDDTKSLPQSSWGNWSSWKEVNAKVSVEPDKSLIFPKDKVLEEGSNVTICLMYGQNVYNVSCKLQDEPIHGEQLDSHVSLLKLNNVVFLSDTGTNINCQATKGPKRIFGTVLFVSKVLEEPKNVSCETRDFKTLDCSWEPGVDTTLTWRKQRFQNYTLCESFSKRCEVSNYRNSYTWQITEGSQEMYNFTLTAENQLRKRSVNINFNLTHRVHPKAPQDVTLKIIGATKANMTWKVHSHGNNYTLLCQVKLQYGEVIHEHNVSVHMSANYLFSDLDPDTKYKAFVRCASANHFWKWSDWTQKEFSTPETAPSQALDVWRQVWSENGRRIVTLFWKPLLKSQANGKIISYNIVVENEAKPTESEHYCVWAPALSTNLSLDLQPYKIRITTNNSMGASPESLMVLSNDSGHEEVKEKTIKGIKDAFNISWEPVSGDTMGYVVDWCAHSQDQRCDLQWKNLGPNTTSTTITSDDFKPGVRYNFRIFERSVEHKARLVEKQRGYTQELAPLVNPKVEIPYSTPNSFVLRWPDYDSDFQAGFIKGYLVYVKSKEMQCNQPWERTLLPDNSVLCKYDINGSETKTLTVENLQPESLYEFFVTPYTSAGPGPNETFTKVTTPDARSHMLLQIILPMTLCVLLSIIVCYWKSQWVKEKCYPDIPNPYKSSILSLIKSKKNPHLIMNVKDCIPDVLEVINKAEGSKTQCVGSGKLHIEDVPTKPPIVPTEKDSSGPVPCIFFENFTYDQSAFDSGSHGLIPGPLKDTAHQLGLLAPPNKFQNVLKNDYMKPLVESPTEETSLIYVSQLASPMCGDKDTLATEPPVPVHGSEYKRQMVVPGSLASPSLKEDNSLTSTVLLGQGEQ", "test": "In vivo skin labelling after intradermal injection", "conditions": "wildtype mice; intradermal injection into back skin", "description": "The inventors produced recombinant IL31 with a C-terminal fusion of SNAP (IL31^SNAP) in E. Coli. […] To determine whether IL31^SNAP was functional the inventors first performed binding studies in primary keratinocyte cultures. IL31^SNAP was labelled in vitro with BG-Surface549 and applied to keratinocytes from wildtype or IL31 Receptor A (IL31RA) knockout mice (IL31RA^−/−). […] The inventors further examined IL31^SNAP labelling in vivo by injecting IL31^SNAP-Surface549 intradermally into the back skin of wild type and IL31RA^−/− mice. […] Finally, the inventors determined whether IL31^SNAP was active by quantifying scratching behavior in mice upon intradermal injection. […] Thus the IL31^SNAP retains the functional properties of native IL31.\nFor skin labelling, intradermal injection of 5 μM IL31^SNAP coupled with 5 μM BG549surf was performed in the nape of the neck. After […] (30 min) skin was collected, fix in PFA 4% overnight, OCT-embedded and cryo-sectioned (25 μm)."}, "[3]": {"test_system": "HEK293T cells expressing TrkB/p75", "test": "BDNF^SNAP-IR700 photoablation of HEK293T cells (propidium iodide)", "type": "cell-based", "description": "In initial experiments BDNF^SNAP-IR700 was applied to HEK293T cells expressing TrkB/p75 and cell death assayed following near infrared illumination."}, "[4]": {"test_system": "TrkB+ neurons", "test": "Spared Nerve Injury (SNI) model, photoablation in the paw", "type": "in vivo, mouse", "description": "Next neuropathic pain was induced in mice using the Spared Nerve Injury (SNI) model. Control mice developed a profound mechanical hypersensitivity in the sural nerve territory of the paw to both von Frey filaments and dynamic brush stimuli (FIGS. 6D and E). […] The inventors performed further experiments in TrkBCreERT2::Rosa26ChR2 mice to optogenetically activate these neurons. Three days after injury it was observed that selective stimulation of TrkB neurons with light evoked behavior indicative of pain. This was evident as a prolonged paw withdrawal from the stimulation, lifting of the paw and licking of the illuminated area (FIG. 6F) that continued for several minutes after light application. Such behavior persisted throughout the 2 weeks observation period and was never observed in control mice (FIG. 6F).\n(§1) The inventors next sought to assess the therapeutic potential of this approach by investigating the effects of BDNF^SNAP-IR700 mediated photoablation in wildtype mice with neuropathic pain. Upon establishment of robust mechanical allodynia three days after SNI, a range of concentrations of BDNF^SNAP-IR700 was injected into the ipsilateral paw of injured mice and the skin illuminated with different light intensities. […] It was examined whether such pronounced effects were also evident in other types of neuropathic pain. […] To determine the selectivity of this approach, the inventors further assessed the effects of BDNF^SNAP-IR700 mediated photoablation on behavioral responses under basal conditions. No deficits in sensitivity to cold, heat, or pinprick upon treatment were observed (FIG. 8f to h). Responses to cotton swab were also unaffected by photoablation (FIG. 3i), perhaps because the skin area that is stimulated in this test extends beyond the zone of illumination."}, "[5]": {"test_system": "skin cell types", "conditions": "mouse, in vivo"}, "[6]": {"test_system": "TrkB+ neurons", "test": "Streptozotocin model of painful diabetic neuropathy", "type": "in vivo, mouse", "method": "as §1"}, "[7]": {"test_system": "baseline sensory behavior", "test": "Behavioral responses under basal conditions after photoablation in the paw", "type": "in vivo, mouse", "method": "as §1"}, "[8]": {"test_system": "TrkB positive afferents", "test": "Innervation of skin and DRG neuron counts after photoablation", "type": "in vivo, mouse", "description": "Prior to photoablation, TrkB positive lanceolate endings were detected around hair follicles (FIG. 9a) and innervating Meissner corpuscles in the plantar surface of the paw. […] It was further investigated whether loss of TrkB^CreERT2 neurons was also evident at the level of the cell soma by analyzing the number of TrkB^CreERT2 positive neurons in the DRG."}, "[9]": {"test_system": "TrkB sensory fibers", "test": "Behavioral sensitivity after photoablation in the sciatic nerve", "type": "in vivo, mouse", "source_text": "It was further investigated whether optogenetically evoked pain behavior in SNI mice is dependent upon CD34 + cells or TrkB+ fibers in the skin."}, "[10]": {"test_system": "TrkB+ neurons", "test": "Paclitaxel model of chemotherapy induced neuropathic pain", "type": "in vivo, mouse", "method": "as §1"}, "[11]": {"conditions": "SNI mice, injection into ipsilateral paw and illumination"}, "[12]": {"conditions": "injection into sciatic nerve, nerve illuminated"}},
  "note": "Entries after “also recorded” stand apart in the source; their conditions may differ.",
  "data": [
    {"molecule": "BDNF^SNAP (ligand)", "values": [
      {"measurement": "overlap between BDNF^SNAP and TrkBCreERT2 positive cells", "setting": "[1]", "value": "> 95", "unit": "%"}
    ]},
    {"molecule": "IL31^SNAP-Surface549: IL31^SNAP labelled in vitro with BG-Surface549 (conjugate, left off: small tags and cut ends) TCSLSFGAPISKEDLRTTIDLLKQESQDLYNNYSIKQASGMSADESIQLPCFSLDREALTNISVIIAHLEKVKVLSENTVDTSWVIRWLTNISCFNPLNLNISVPGNTDESYDCKVFVLTVLKQFSNCMAELQAKDNTTC", "values": [
      {"measurement": "fluorescent signal in cells in skin sections", "setting": "[2]", "value": "fluorescent signal was observed"}
    ]},
    {"molecule": "BDNF^SNAP-IR700: BDNF^SNAP conjugated in vitro to benzylguanine modified IRDye®700 DX phthalocyanine (conjugate, UniProt P23560 19-247, looked up, C-terminal SNAP tag; IRDye700DX conjugate, BDNF^SNAP conjugated in vitro to benzylguanine modified IRDye®700 DX phthalocyanine) Neurotrophic factor BDNF …: APMKEANIRGQGGLAYPGVRTHGTLESVNGPKAGSRGLTSLADTFEHVIEELLDEDQKVRPNEENNKDADLYTSRVMLSSQVPLEPPLLFLLEEYKNYLDAANMSMRVRRHSDPARRGELSVCDSISEWVTAADKKTAVDMSGGTVTVLEKVPVSKGQLKQYFYETKCNPMGYTKEGCRGIDKRHWNSQCRTTQSYVRALTMDSKKRIGWRFIRIDTSCVCTLTIKRGR", "values": [
      {"measurement": "cell death after near infrared illumination", "setting": "[3]; HEK293T cells expressing TrkB/p75, 24 hours after brief illumination", "value": "substantial cell death"},
      {"measurement": "cell death after near infrared illumination", "setting": "[3]; mock transfected HEK293T cells", "value": "not evident"},
      {"measurement": "cotton swab evoked allodynia", "setting": "[4]; [11]", "value": "concentration and illumination dependent rescue; also recorded: reversed by photoablation"},
      {"measurement": "dynamic brush evoked allodynia", "setting": "[4]; [11]", "value": "concentration and illumination dependent rescue; also recorded: dose dependent reversal of mechanical hypersensitivity"},
      {"measurement": "von Frey withdrawal thresholds", "setting": "[4]; [11]", "value": "concentration and illumination dependent rescue; also recorded: dose dependent reversal of mechanical hypersensitivity"},
      {"measurement": "persistence of rescue", "setting": "[4]; after a single treatment regime", "value": "more than 3 weeks"},
      {"measurement": "number of CD34 positive cells in the skin", "setting": "[5]", "value": "significantly reduced the number of CD34 positive cells"},
      {"measurement": "numbers of Merkel cells, keratinocytes, dendritic and dermal antigen presenting cells in the skin", "setting": "[5]", "value": "did not alter their numbers"},
      {"measurement": "return to injury levels", "setting": "[6]", "value": "≤ 20", "unit": "days"},
      {"measurement": "time of peak reversal", "setting": "[6]", "value": "around 10 days post treatment"},
      {"measurement": "mechanical hypersensitivity", "setting": "[6]; 5 μM at 200 J/cm^2", "value": "marked reversal of mechanical hypersensitivity; also recorded: reverses mechanical allodynia"},
      {"measurement": "responses to cotton swab", "setting": "[7]", "value": "unaffected; also recorded: does not affect baseline sensory behavior responses"},
      {"measurement": "sensitivity to cold (acetone drop test)", "setting": "[7]", "value": "No deficits; also recorded: does not affect baseline sensory behavior responses"},
      {"measurement": "sensitivity to heat (hot plate test)", "setting": "[7]", "value": "No deficits; also recorded: does not affect baseline sensory behavior responses"},
      {"measurement": "sensitivity to pinprick", "setting": "[7]", "value": "No deficits; also recorded: does not affect baseline sensory behavior responses"},
      {"measurement": "innervation of hairy and glabrous skin", "setting": "[8]; 7 days after photoablation (13 days post-SNI)", "value": "selective loss of TrkB fibers but persistent innervation by PGP9.5 fibers; also recorded: Substantial loss of TrkB^CreERT2 positive afferents (red), but persistence of other fibers"},
      {"measurement": "proportion of TrkB neurons in the DRG", "setting": "[8]; 10 days after photoablation", "value": "No differences in the proportion of TrkB neurons"},
      {"measurement": "innervation of skin by TrkB positive fibers", "setting": "[8]; 24 days post-photoablation", "value": "TrkB positive fibers were again seen innervating their appropriate end organs; also recorded: Reinnervation of skin by TrkB^CreERT2 afferents"},
      {"measurement": "light driven nocifensive behavior", "setting": "[9]; TrkB^CreERT2::Rosa26^ChR2 mice with SNI, sciatic nerve photoablation", "value": "significant reduction in light driven nocifensive behavior; also recorded: reduced by nerve photoablation"},
      {"measurement": "behavioral response to cooling (acetone drop test)", "setting": "[9]; injection into sciatic nerve at mid-thigh level, nerve illuminated", "value": "normal; also recorded: not altered by nerve photoablation"},
      {"measurement": "behavioral response to heating (radiant heat test)", "setting": "[9]; [12]", "value": "normal; also recorded: not altered by nerve photoablation"},
      {"measurement": "behavioral response to pinprick", "setting": "[9]; [12]", "value": "normal; also recorded: not altered by nerve photoablation"},
      {"measurement": "sensitivity to cotton swab", "setting": "[9]; [12]", "value": "reduced by nerve photoablation"},
      {"measurement": "return to injury levels", "setting": "[10]", "value": "≤ 20", "unit": "days"},
      {"measurement": "time of peak reversal", "setting": "[10]", "value": "around 10 days post treatment"},
      {"measurement": "mechanical hypersensitivity", "setting": "[10]; 5 μM at 200 J/cm^2", "value": "marked reversal of mechanical hypersensitivity; also recorded: reverses mechanical allodynia"}
    ]}
  ]
}
